# From US20250276077A1, “EPHA2 ANTIBODIES” (Immunome, Inc., priority 2022, published 2025)
# Legend:
# [1] = molecular target: Human EphA2 (human) (UniProt P29317); experiment: IHC/IF on frozen human tumor tissue: ESO
# [2] = molecular target: Human EphA2 (human) (UniProt P29317); experiment: IHC/IF on frozen human tumor tissue: STS
# [3] = molecular target: Human EphA2 (human) (UniProt P29317); experiment: IHC/IF on frozen human tumor tissue: OVA
# [4] = molecular target: Human EphA2 (human) (UniProt P29317); experiment: IHC/IF on frozen human tumor tissue: RCC-clear cell
# [5] = molecular target: Human EphA2 (human) (UniProt P29317); experiment: IHC/IF on frozen human tumor tissue: UCEC-clear cell
# [6] = molecular target: Human EphA2 (human) (UniProt P29317); experiment: IHC/IF on frozen human tumor tissue: CRC
# [7] = molecular target: Human EphA2 (human) (UniProt P29317); experiment: IHC/IF on frozen human tumor tissue: ER+ BRC
# [8] = molecular target: Human EphA2 (human) (UniProt P29317); experiment: IHC/IF on frozen human tumor tissue: UCEC-endometrioid
# [9] = molecular target: Human EphA2 (human) (UniProt P29317); experiment: IHC/IF on frozen human tumor tissue: PROC
# [10] = molecular target: Human EphA2 (human) (UniProt P29317); experiment: IHC/IF on frozen human tumor tissue: PANC
# [11] = molecular target: Human EphA2 (human) (UniProt P29317); experiment: IHC/IF on frozen human tumor tissue: Her2+ BRC
# [12] = molecular target: Human EphA2 (human) (UniProt P29317); experiment: IHC/IF on frozen human tumor tissue: RCC-papillary
# [13] = molecular target: Human EphA2 (human) (UniProt P29317); experiment: IHC/IF on frozen human tumor tissue: ANC
# [14] = molecular target: Human EphA2 (human) (UniProt P29317); experiment: IHC/IF on frozen human tumor tissue: GAC
# [15] = molecular target: Human EphA2 (human) (UniProt P29317); experiment: IHC/IF on frozen human tumor tissue: URO
# [16] = molecular target: Human EphA2 (human) (UniProt P29317); experiment: IHC/IF on frozen human tumor tissue: HNC
# [17] = molecular target: Human EphA2 (human) (UniProt P29317); experiment: IHC/IF on frozen human tumor tissue: NSCLC-SQ
# [18] = molecular target: Human EphA2 (human) (UniProt P29317); experiment: IHC/IF on frozen human tumor tissue: TNBC
# [19] = molecular target: Human EphA2 (human) (UniProt P29317); experiment: IHC/IF on frozen human tumor tissue: UCEC-papillary
# [20] = molecular target: Human EphA2 (human) (UniProt P29317); experiment: IHC/IF on frozen human tumor tissue: NSCLC-Adeno
# [21] = molecular target: Human EphA2 (human) (UniProt P29317); experiment: IHC/IF on frozen human tumor tissue: MELA
IHC score [1],IHC score [2],IHC score [3],IHC score [4],IHC score [5],IHC score [6],IHC score [7],IHC score [8],IHC score [9],IHC score [10],IHC score [11],IHC score [12],IHC score [13],IHC score [14],IHC score [15],IHC score [16],IHC score [17],IHC score [18],IHC score [19],IHC score [20],further results,Substance
1,1,1,1,2,1,1,1,1,1,1,2,1,1,1,1,1,1,2,2,IHC score [21]: 2,LS-B1794-50 (AA 450-500) (antibody)
2,2,2,1,2,1,1,2,1,1,2,1,2,1,1,2,2,1,3,2,IHC score [21]: 3,LS-C36249-100 (extracellular) (antibody)
1,1,1,1,2,1,1,1,1,1,1,1,1,1,1,1,1,1,2,1,IHC score [21]: 2,LS-C100255-400 (AA 30-60) (antibody)
2,1,2,1,2,1,1,2,1,2,1,1,2,1,1,2,2,1,2,2,IHC score [21]: 3,MAB3035 (Gln25-Asn534) (antibody)
